Laboratory results published in the DeepSol protein solubility set.

Experiment: soluble on expression in E. coli; label from the status in PepcDB or PDB records

| Sequence | soluble on expression in E. coli |
| --- | --- |
| MGSDKIHHHHHHMLSVNRIVISAAGGGKTTRVVDQALACEQGQGATALITYTRNNVREIQLKAYERTRTIPSHVEVISWYSFLLRELARPYRSAMHASRVDGIHWVEGKSVPYIPEARTSGHYFFDGSRIYSDKIAKFVCECDRRSGGAIMRRLKQRFRHIIIDEIQDMAGYDLDLLELILKAGVPVTFVGDHRQATFATNNASKNKVFSGPAIIKKFELWKKQGLVEIEYETHTHRCNQTIADLGDGFFPNEPKTVSRNDKVTGHDGVFLVSSADVGEYMKRFAPQVLRYSAATNCDLDEAMNFGESKGLTFERVLIYPHGPARKWLASGDIRHVEKSLTKMYVAVTRARYSVAFVHDGKICSVAATKWVPG | not soluble |
| PTTRGYGETRGIVKENGLHTVCEEAGCPNIGECWDKKHATFMIMGDTCTRACAFCNVKTGMPGALDANEPAYVAEATRKLGLQHLVITSVDRDDLADGGAAHFAATIRAVREACPTTTIEILTPDFLRKDGALEVVVAAKPDVFNHNLETVPSRYLSVRPGARYFHSIRLLQRVKELDPSIFTKSGIMVGLGEERHEVLQVMDDLRSAEVDFLTIGQYLQPTRKHHAVMRYVTPDEFAGYQTTAYAKGFLMVSASPMTRSSHHAGDDFAKLKAA | not soluble |
| MSLNQTFDKENLESKNTQNLQKSKNPTSQLSKTILKEEFNFLPNDVEINWKGRVLVIGDIHGDLKSLITSLFLSGVINSNLDWIAKNTLLIQLGDVVDRGSHALQIYKLFNKLKSQAPSLGSKFVGLLGNHEVMNLCGQLHYVTDEDFQTYGGRDNRTFEWSKEGFVGKYLRTMKLAIRVNDSLYVHAGLLPKYAKLGLDKLDKLSNDLLEGDFCDFYSSLFFVEDGPLWTRDISLGEEEKACKLVDETLQILGLSRMVVGHTIQHDNRINIKCDNKLILADTGFSEAIYGKPCMLEILYHNDNPDPSNYKSFHPYSEGHHHHHH | not soluble |
| DIQMTQSPSSLSATLGGKVTITCKASQDINKYIAWYQHKPGKGPRLLIHYTSTLQPGNPSRFSGSGSGRDYSFSISNLEAEDIAIYYCLQYDNLQRTFGGGTKVEIKRADAAPTVSIFPPSSEQLTSGGASVVCFLNNFYPKDINVKWKIDGSERQNGVLNSWTDQDSKDSTYSMSSTLTLTKDEYERHNSYTCEATHKTSTSPIVKSFNRNE | soluble |
| MSLDIIIVGSGAGGLTTASNIKKHDKNAKVTVITSDNYIAYSPCAIPYVIGEEIADFESIIMHTPEDYKAKGIDVIVEAEVLDVVSDENKIIYKKDATETELKYDNLVLATGGTPFVPPIEGVTLGGVFKVRTIEDGRKITEWAKDTKNAVVAGAGAIGIEIAFGLKELGLDVTVVEMVPQVFPRALDPDMAETVQKYLEEQGIKVILEKPVGKIIGNDKVESVLVGEETIPAEMVIMSTGVRSNIELAKRAGCEIGRWAVLTNEKMQTSIPNIYAVGDCVEVIDAITMQNTLSPFGTTAVRQGKVAAKTIANIEAEIKPVLNSMVSKIGKLEIGGTGMTETAAKMNGIEIVLGYSKALTRARYYPGGKPIYIKMVADKNTKKIIGCQIISEERVAERVDAMSVAIFNGMTVEELANQEFCYAPPVSMVIDPIVFAAEDTLDKEGHHHHHH | soluble |
| MGSDKIHHHHHHVGEHGNVNLRAENCRLKGKDIIVLYRDELDLSSEQWLELLQDNTVFKDEDILLVLELYKCNNCREYASVLADSLGVASHSVLNLQIGRLGKRIIARYPDIKYPTREDGVVRYWHIPFWGEDGEKKGHYYWQLRPELKEALKMLKSNQKRKIFALHGEVQLAQEVDEEQTEKLYEGAKIQIVVNAYERNIKARQICIDKYGYKCSICDFDFEEFYGMLGSDYIEVHHLIPLHEINKEYRVDPINDLRPVCPNCHAMLHRAGISYEELKNKIESEC | not soluble |
| MTKKVGIVDTTFARVDMASIAIKKLKELSPNIKIIRKTVPGIKDLPVACKKLLEEEGCDIVMALGMPGKAEKDKVCAHEASLGLMLAQLMTNKHIIEVFVHEDEAKDDKELDWLAKRRAEEHAENVYYLLFKPEYLTRMAGKGLRQGFEDAGPARE | soluble |
| MRDNASLAHTQWNCKYHIVFVPKYRRQVIYGKIKKDIGQILRKLCEMKGVEIIEASLCPDHIHMLVSIPPKISVSSFMGYLKGKSSLMIFDRHANLKYKYGNRHFWCRGYYVDTVGRNRKAIEQYIRRQLQEDIASDQISLNEYIDPFTGERVNKSKK | soluble |
| MHCSLYTRFNVENAGGDFSVGGARVCFRIPENPCSPRPAVAGRANPLPPVADFGMKEVRTKKKKHMTNDVNGMKKKCGRPALGRTRKLTRGVTVKFSPVSYEALRFRAGKSGRSLAVYIREAALAATVTARHTPEENALLRSLAGMANNLNQLTKLSHQTGFYRTRLLIEGLLGKLKRIMDDYRPKGG | not soluble |
